Laboratory results: paper PMC2978286 (Journal of cardiovascular pharmacology, 2010)

Molecular target: β2AR-YFP (UniProt P07550 1-413)
Experiment: FRET or BRET

B1: CXCR4-RLuc (receptor, UniProt P61073 1-352, looked up)
chain: MEGISIYTSDNYTEEMGSGDYDSMKEPCFREENANFNKIFLPTIYSIIFLTGIVGNGLVILVMGYQKKLRSMTDKYRLHLSVADLLFVITLPFWAVDAVANWYFGNFLCKAVHVIYTVNLYSSVLILAFISLDRYLAIVHATNSQRPRKLLAEKVVYVGVWIPALLLTIPDFIFANVSEADDRYICDRFYPNDLWVVVFQFQHIMVGLILPGIVILSCYCIIISKLSHSKGHQKRKALKTTVILILAFFACWLPYYIGISIDSFILLEIIKQGCEFENTVHKWISITEALAFFHCCLNPILYAFLGAKFKTSAQHALTSVSRGSSLKILSKGKRGGHSSVSTESESSSFHSS
BRET ratio (basal): 0.23
BRET ratio (with ISO and SDF-1): 0.42
